± gives the uncertainty stated by the source.
Experiment: protein stability index of a GFP-peptide fusion (yeast GPS) (PSI 1-4); higher = more stable; sorted into four equal gates, so the index is relative within each strain
Outline: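 Sequencing reads from sorted gates were used to score each peptide. The library consisted of tiled 17-residue yeast protein peptides fused downstream of GFP on a Cherry-expressing plasmid, pooled and carried in yeast. Mid-log cultures in leucine-free medium were split into four equal gates by GFP/Cherry ratio, and each gate's plasmids were PCR-amplified and Illumina-sequenced. The protein stability index adds up, over all gates, the read frequency multiplied by the gate number.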

Sequence | protein stability index (doa10∆) | protein stability index (pdr5∆) | protein stability index (san1∆) | protein stability index (ubr1∆)
TDLENSSLFQEKLLETN [ECM29] | 2.52 ± 0.096 | 2.46 ± 0.079 | 2.49 ± 0.056 | 2.68 ± 0.057
TDLRLSTNGLGMCQLYF [SNU114] | 3.48 ± 0.12 | 3.52 ± 0.13 | 2.98 ± 0.23 | 3.08 ± 0.21
TDNVSMYPSPTGVMIGI [PRP8] | 2.65 ± 0.065 | 2.41 ± 0.063 | 2.02 ± 0.086 | 2.3 ± 0.041
TEAAFTKLDQVWGSETV [RPL4A] | 1.84 ± 0.18 | 1.87 ± 0.11 | 3.07 ± 0.067 | 2.15 ± 0.14
TEKDDNKTNNEDLFDDY [NUT1] | 2.92 ± 0.055 | 3.25 ± 0.053 | 3.01 ± 0.052 | 3.08 ± 0.049
TELVDGRENFVYANNPE [SIR3] | 3.15 ± 0.1 | 3.33 ± 0.11 | 3.05 ± 0.13 | 2.95 ± 0.083
TERVVEIGPSPTLAGMA [FAS2] | 2.501 ± 0.018 | 2.599 ± 0.017 | 2.496 ± 0.019 | 2.496 ± 0.012
TESLRVENSVLIEKVDD [YIL149C/MLP2] | 2.48 ± 0.17 | 2.98 ± 0.22 | 2.63 ± 0.14 | 2.79 ± 0.074
TESVPEPKLFRMRIFAS [RPL20A] | 3.36 ± 0.13 | 3.02 ± 0.18 | 3.02 ± 0.13 | 1.21 ± 0.24
TETEVEREQPQENKNID [SRB4] | 3.42 ± 0.1 | 3.41 ± 0.091 | 3.07 ± 0.068 | 3.62 ± 0.089
TFAKSKNYSRPSTAIHT [SIR4] | 2.03 ± 0.099 | 1.79 ± 0.066 | 1.53 ± 0.1 | 2.15 ± 0.05
TFLLNNKNIDIGLLNKS [RPN2] | 3.38 ± 0.21 | 3.11 ± 0.27 |  | 2.61 ± 0.11
TFLSEWGMEPLEDYVPH [RPB2] | 3.17 ± 0.1 | 3.71 ± 0.23 | 3.13 ± 0.12 | 2.81 ± 0.14
TFNNQDKGLLPYAIMET [RPO31] | 1.99 ± 0.067 | 2.46 ± 0.085 | 1.44 ± 0.075 | 1.48 ± 0.058
TFTFTAHMGVLLVLLQD [SWP82] | 1.71 ± 0.044 | 1.32 ± 0.044 | 1.41 ± 0.087 | 1.42 ± 0.035
TFVVEQLIKQSIKNNVA [SNU114] |  |  |  | 2.38 ± 0.27
TGAGAFGTGQSTFGFNN [YJL041W/NSP1] | 2.72 ± 0.055 | 2.57 ± 0.064 | 3.02 ± 0.058 | 2.85 ± 0.046
TGEFDFEAAVKMSDGFN [RPT4] | 2.91 ± 0.15 | 3.33 ± 0.14 | 2.57 ± 0.18 | 3.31 ± 0.16
TGHPKGAAGAWMMNGAL [FAS2] | 1.98 ± 0.069 | 1.5 ± 0.052 | 1.43 ± 0.12 | 1.66 ± 0.052
TGKTLLAKAVAATIGAN [RPT4] | 1.46 ± 0.074 | 1.75 ± 0.084 | 1.68 ± 0.16 | 2.08 ± 0.13
TGKTLLARACAAQTNAT [RPT5] | 2.72 ± 0.13 | 2.92 ± 0.089 | 2.9 ± 0.096 | 2.61 ± 0.29
TGKYGVRYGSSLRRQVK [RPL43A] | 3 ± 0.079 | 3.23 ± 0.066 | 3.42 ± 0.057 | 3.06 ± 0.046
TGMSSMSPFLRKVVKPS [SRB4] | 2.76 ± 0.075 | 2.76 ± 0.088 | 1.97 ± 0.12 | 2.48 ± 0.049
TGSLMGGNSTQNTSNMN [YGR119C/NUP57] | 3.19 ± 0.076 | 3.24 ± 0.064 | 3.07 ± 0.052 | 3.18 ± 0.048
TGYDLSNSVFSPDGRNF [PRE10] | 2.79 ± 0.072 | 2.88 ± 0.089 | 2.52 ± 0.13 | 2.97 ± 0.087
THEDLPKEVDGLEVGPV [IRR1] | 3.21 ± 0.091 | 3.35 ± 0.11 | 3.06 ± 0.094 | 3.18 ± 0.086
THPKDTFYITREKYNMK [ARP9] | 2.98 ± 0.12 | 3.09 ± 0.083 | 3.07 ± 0.06 | 3.31 ± 0.064

From the supplement of paper PMC9732359
